Experimental data published in paper PMC5067699.

Experiments:
[1] = target: Peptide-7 (tau 195-214, pS199/pS202); assay: SPR
[2] = target: paired-helical filament tau (PHF-tau) from AD brain (human (endogenous in AD patient cortex)) (UniProt P10636); assay: SPR
paired-helical filament tau (PHF-tau) from AD brain (human (endogenous in AD patient cortex)), sequence (P10636 whole entry): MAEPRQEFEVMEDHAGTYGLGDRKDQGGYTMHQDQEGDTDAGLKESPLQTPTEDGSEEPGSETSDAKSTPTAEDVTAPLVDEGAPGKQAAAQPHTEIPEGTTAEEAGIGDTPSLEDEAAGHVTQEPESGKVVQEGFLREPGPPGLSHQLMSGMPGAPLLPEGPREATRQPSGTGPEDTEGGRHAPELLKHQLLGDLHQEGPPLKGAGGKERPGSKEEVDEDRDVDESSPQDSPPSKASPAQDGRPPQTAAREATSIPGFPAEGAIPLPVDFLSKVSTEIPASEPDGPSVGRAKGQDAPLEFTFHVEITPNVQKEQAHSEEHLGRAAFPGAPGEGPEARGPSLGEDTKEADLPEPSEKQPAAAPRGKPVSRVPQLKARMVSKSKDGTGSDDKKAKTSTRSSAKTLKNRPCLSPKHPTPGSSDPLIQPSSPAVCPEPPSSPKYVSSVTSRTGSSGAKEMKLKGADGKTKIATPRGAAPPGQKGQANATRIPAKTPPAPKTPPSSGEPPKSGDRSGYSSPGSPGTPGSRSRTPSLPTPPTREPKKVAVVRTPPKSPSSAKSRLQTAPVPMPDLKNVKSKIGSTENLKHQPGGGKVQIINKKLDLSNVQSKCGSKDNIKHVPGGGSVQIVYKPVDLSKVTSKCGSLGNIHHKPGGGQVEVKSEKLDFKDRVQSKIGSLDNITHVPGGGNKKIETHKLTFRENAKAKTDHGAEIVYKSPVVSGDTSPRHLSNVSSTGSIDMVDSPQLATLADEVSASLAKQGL

Kd [1]: > 1000 µM
Kd [2]: 0.021 µM
Substance: AT8 Fab (from UniProt P01857 1-103; P01834 1-107)
